# Results from paper PMC8872791, “MadR mediates acyl CoA-dependent regulation of mycolic acid desaturation in mycobacteria” (Proceedings of the National Academy of Sciences of the …, 2022).
# T1: MadR (Mycobacterium tuberculosis H37Rv, UniProt P9WMD9 1-234)
# T1 sequence: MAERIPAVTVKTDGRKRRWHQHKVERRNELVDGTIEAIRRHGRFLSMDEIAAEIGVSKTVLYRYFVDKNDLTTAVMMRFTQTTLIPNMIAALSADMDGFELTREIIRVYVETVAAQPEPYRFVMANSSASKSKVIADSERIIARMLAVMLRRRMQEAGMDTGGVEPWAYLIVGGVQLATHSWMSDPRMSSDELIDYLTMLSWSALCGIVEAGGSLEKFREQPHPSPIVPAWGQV
# Target: T1, MadR
# Experiment: EMSA
# Details: protein: recombinant; tags: His-tag implied (pET28a, cobalt IMAC); chain copies: 2; blunt
row,Binder,binding result
1,desA2 control (substituted motif) (dsDNA) DNA 1: TTCGAGAACGATGCAAATACGAAGGTATACTACCTCATGGTAATCAAACC DNA 2: GGTTTGATTACCATGAGGTAGTATACCTTCGTATTTGCATCGTTCTCGAA,no binding
2,desA1 control (substituted motif) (dsDNA) DNA 1: CCGTTCGAGACGACTAATGAGGTGCAACAATATACGATCACCATCGGTA DNA 2: TACCGATGGTGATCGTATATTGTTGCACCTCATTAGTCGTCTCGAACGG,no binding
